Assays:
h15H6.v1 HC-A71R variant = assay: phage competition ELISA: phage-displayed Fab preincubated with soluble murine HtrA1, unbound phage captured on coated huHtrA1-PD-His, OD450
h15H6.v1 LC-S49Y variant = assay: as above
[1] = target: T1, His-tagged human HtrA1 protease domain (human, UniProt Q92743 161-367); assay: SPR (BIACORE), Fab
T1 construct: His-tagged protease domain; also called huHtrA1-PD-His; huHtrA1-PD

[2] = target: T2, LA-pep1, peptide corresponding to residues 190-201 of the human HtrA1 sequence (human); assay: SPR, peptide and Fab
T2 construct: Synthetic peptide; numbering of the human HtrA1 precursor protein; also called LA-pepl; HtrA1 Loop A (LA) peptide
T2 peptide: RKLPFSKREVPV

[3] = target: T1, His-tagged human HtrA1 protease domain; assay: cell-based or functional assay
[4] = target: endogenous HtrA1 from media of HtrA1-secreting human C32 melanoma cells (human, UniProt Q92743 23-480); assay: cell-based or functional assay
Sequence of endogenous HtrA1 from media of HtrA1-secreting human C32 melanoma cells (Q92743 23-480 limits assumed): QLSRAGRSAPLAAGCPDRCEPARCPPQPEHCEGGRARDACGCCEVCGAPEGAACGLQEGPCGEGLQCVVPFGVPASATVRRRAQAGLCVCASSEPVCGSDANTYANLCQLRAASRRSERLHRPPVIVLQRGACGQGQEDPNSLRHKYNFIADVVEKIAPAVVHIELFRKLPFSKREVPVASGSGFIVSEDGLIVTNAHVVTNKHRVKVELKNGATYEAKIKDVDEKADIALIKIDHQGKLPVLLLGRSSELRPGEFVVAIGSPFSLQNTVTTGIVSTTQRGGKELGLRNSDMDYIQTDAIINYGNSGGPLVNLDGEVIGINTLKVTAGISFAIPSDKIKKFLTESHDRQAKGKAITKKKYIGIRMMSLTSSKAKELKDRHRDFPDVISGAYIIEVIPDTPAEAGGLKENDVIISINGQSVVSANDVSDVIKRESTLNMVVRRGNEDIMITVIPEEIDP

LA-pep2 = target: T3, LA-pep2; assay: SPR, peptide and Fab
T3 construct: The changed residue is printed as an image; A is put in by the column 'AA change' (R1A); also called R1A
T3 peptide: AKLPFSKREVPV

LA-pep3 = target: T4, LA-pep3; assay: SPR, peptide and Fab
T4 construct: The changed residue is printed as an image; A is put in by the column 'AA change' (L3A); also called L3A
T4 peptide: RKAPFSKREVPV

LA-pep4 = target: T5, LA-pep4; assay: SPR, peptide and Fab
T5 construct: The changed residue is printed as an image; A is put in by the column 'AA change' (P4A); also called P4A
T5 peptide: RKLAFSKREVPV

LA-pep5 = target: T6, LA-pep5; assay: SPR, peptide and Fab
T6 construct: The changed residue is printed as an image; A is put in by the column 'AA change' (F5A); also called F5A
T6 peptide: RKLPASKREVPV

LA-pep6 = target: T7, LA-pep6; assay: SPR, peptide and Fab
T7 construct: The changed residue is printed as an image; A is put in by the column 'AA change' (R8A); also called R8A
T7 peptide: RKLPFSKAEVPV

[5] = target: T1, His-tagged human HtrA1 protease domain; assay: cell-based or functional assay; remark: listed apart in the source
[6] = target: T1, His-tagged human HtrA1 protease domain; assay: BIACORE SPR analysis, Fab format
Protocol: To determine the binding affinity of selected Fab variants for HtrA1, SPR measurement with a BIACORE™ T200 instrument was performed. Briefly, a series S sensor chip CM5 was activated with 1-EDC and NHS reagents according to the supplier's instructions, and anti-His antibody was coupled to achieve 200-300 response units (RU), then following by blocking un-reacted groups with 1 M ethanolamine. For kinetics measurements, approximately 5 nM of huHtrA1-PD-His was first injected at 10 μl/min flow rate to capture approximately 100 RU at 2 different flow cells (FC), except for FC1 (which served as a reference). Next, 5-fold serial dilutions of Fab in HBS-P buffer (0.01M HEPES pH 7.4, 0.15M NaCl, 0.005% surfactant P20) from low (0.8 nM) to high (50 nM) were injected (flow rate: 30 μl/min). The binding responses on HtrA1 were corrected by subtracting of RU from a blank flow cell. The sensorgram was recorded and subject to reference and buffer subtraction before evaluating by BIACORE® T200 Evaluation Software (version 2.0). Association rates (kₒₙ) and dissociation rates (koff) were calculated using a simple one-to-one Langmuir binding model. The equilibrium dissociation constant (KD) was calculated as the ratio of koff/kₒₙ.

[7] = target: T1, His-tagged human HtrA1 protease domain; assay: BIACORE T200 SPR; Fab analyte over huHtrA1-PD-His captured by anti-His antibody
[8] = target: T8, murine HtrA3 protease domain (murine, UniProt Q9D236 135-350, limits assumed); assay: ELISA, hybridoma clone
T8 construct: domain: PD (protease domain); also called muHtrA3-PD; murine HtrA3-PD
T8 sequence (looked up): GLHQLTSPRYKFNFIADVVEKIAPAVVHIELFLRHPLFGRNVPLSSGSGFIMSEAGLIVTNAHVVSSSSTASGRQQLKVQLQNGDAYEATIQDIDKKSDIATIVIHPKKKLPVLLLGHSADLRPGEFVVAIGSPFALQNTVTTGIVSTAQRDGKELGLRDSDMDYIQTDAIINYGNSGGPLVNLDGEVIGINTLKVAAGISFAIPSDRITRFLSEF

[9] = target: T9, murine HtrA4 protease domain (murine, UniProt A2RT60 160-371, limits assumed); assay: ELISA, hybridoma clone
T9 construct: domain: PD (protease domain); also called muHtrA4-PD; murine HtrA4-PD
T9 sequence (looked up): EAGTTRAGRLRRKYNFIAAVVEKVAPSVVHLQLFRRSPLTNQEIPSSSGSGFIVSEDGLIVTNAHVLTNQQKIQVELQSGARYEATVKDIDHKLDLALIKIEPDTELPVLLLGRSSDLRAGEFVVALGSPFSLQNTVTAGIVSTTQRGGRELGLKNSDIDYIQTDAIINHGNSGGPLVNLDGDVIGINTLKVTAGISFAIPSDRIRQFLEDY

[10] = target: T10, His-tagged recombinant murine HtrA1 protease domain (murine, UniProt Q9R118 156-367); assay: ELISA, antigen coated on plate, hybridoma clone
T10 construct: His-tagged protease domain; also called muHtrA1-PD-His; muHtrA1-PD
Protocol: (§1) ELISA was performed according to a standard protocol. Briefly, 96-well microliter ELISA plates (Greiner, Germany) were coated with 100 μl/well muHtrA1-PD-His or huHtrA1-PD-His (SEQ ID NO: 154) at 2 μg/ml in 0.05 M carbonate buffer (pH 9.6) at 4° C. overnight. After washing three times with wash buffer (0.05% TWEEN®20 in PBS, Sigma), plates were blocked with 100 μl ELISA assay diluents with BSA. 100 μl of cultured supernatants or diluted purified monoclonal antibodies (mAbs) were added and incubated for 1 h at room temperature. The plates were washed three times and incubated with HRP-conjugated goat anti-mouse IgG Fc for 1 h. After washing three times, bound enzyme was detected by addition of 100 μl/well of the TMB substrate (BioFX Laboratories) for 5 min. The reactions were stopped by adding 100 μl/well of stop reagent (BioFX Laboratories), followed by detection of color at absorbance 650 nm (A_{650 nm}).

[11] = target: T1, His-tagged human HtrA1 protease domain; assay: ELISA, antigen coated on plate, hybridoma clone
Protocol: as §1

T1 sequence (Q92743 other isoform, or with tags, fused parts or gaps limits assumed): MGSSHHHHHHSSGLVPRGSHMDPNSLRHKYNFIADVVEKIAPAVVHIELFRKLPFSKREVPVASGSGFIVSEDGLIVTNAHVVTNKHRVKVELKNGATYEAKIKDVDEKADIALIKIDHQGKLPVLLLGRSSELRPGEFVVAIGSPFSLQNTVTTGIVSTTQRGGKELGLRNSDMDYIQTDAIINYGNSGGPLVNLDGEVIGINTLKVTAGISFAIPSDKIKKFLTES

## His-tagged recombinant murine HtrA1 protease domain (from UniProt Q9R118 156-367) (enzyme)
h15H6.v1 HC-A71R variant
  IC50 (read off the curve): 0.1 nM
h15H6.v1 LC-S49Y variant
  IC50 (read off the curve): 0.6 nM

B1: h15H6.v4 Fab (Fab, V domains shown)
VH: EVQLVQSGAEVKKPGASVKVSCKASGYKFTDSEMHWVRQAPGQGLEWIGGVDPETEGAAYNQKFKGRATITRDTSTSTAYLELSSLRSEDTAVYYCTRGYDYDYALDYWGQGTLVTVSS
VL: DIQMTQSPSSLSASVGDRVTITCRASSSVEFIHWYQQKPGKAPKPLISATSNLASGVPSRFSGSGSGTDFTLTISSLQPEDFATYYCQQWSSAPWTFGQGTKVEIK
notes: Tested as Fab; also called APEG.LC3.HC3; Fab15H6.v4
[1]
  fold improvement in affinity against YW505.94a.28 Fab: ~30 fold
[2]
  Kd: 0.4 nM
[3]
  IC50, FRET-based H2-Opt blocking assay: ~0.386 nM
  IC50, mass spectrometry-based activity assay (cleavage of intact α-casein): ~45 nM
[4]
  IC50, endogenous HtrA1 activity assay (H2-Opt): ~1.12 nM
LA-pep2
  Kd: 321 nM
  affinity loss (KD mutant/KD wild-type): 810 fold
LA-pep3
  affinity loss (KD mutant/KD wild-type): > 2500 fold
  binding result: no binding (tested: no binding detected up to 1 µM)
LA-pep4
  affinity loss (KD mutant/KD wild-type): > 2500 fold
  binding result: no binding (tested: no binding detected up to 1 µM)
LA-pep5
  Kd: 4.53 nM
  affinity loss (KD mutant/KD wild-type): 11 fold
LA-pep6
  affinity loss (KD mutant/KD wild-type): > 2500 fold
  binding result: no binding (tested: no binding detected up to 1 µM)
[5]
  IC50 FRET (H2-Opt substrate cleavage): 0.3 nM
  IC90 FRET (H2-Opt substrate cleavage): 1.19 nM
  Max inhibition (FRET H2-Opt assay): 100
[6]
  Kd: 0.106 nM
  koff: 3.29e-05 s⁻¹
  kon: 309000 M⁻¹ s⁻¹
[7]
  Kd: 0.106 nM
  koff: 3.29e-05 s⁻¹
  kon: 309000 M⁻¹ s⁻¹

B2: anti-HtrA1 hybridoma antibody clone 3A5 (antibody, V domains shown)
VH: DVHLVESGGGLVRPGGSRKLSCEASGFTFSSFGMHWVRQAPEKGLEWVAFITSDSSTIYYADTVKGRFTISRDNPKNTLFLQMTSLRSEDTAMYYCTRSGDDYLDYWGQGTTLTVSS
VL: DIVLTQSPASLAVSLGQRATISCRASQSVSTSSSSYMHWYQQKPGQPPKVFIKYASNLESGVPARFSGSGSGTDFTLSIHPVEEEDTATYYCQHSWEIPFTFGGGTKLEIK
[8]
  binding result: no binding
[9]
  binding result: no binding
[10]
  binding result: binds
[11]
  binding result: binds
